In PMC6101532:

Experiments:
[1] = molecular target: his-tagged RsbN(1–91) (Streptomyces venezuelae); test: SEC
[2] = molecular target: MBP–RsbN α3 (maltose binding protein joined by a linker to RsbN α3) (Streptomyces venezuelae); test: SEC

| Substance | stoichiometry N [1] | stoichiometry N [2] |
| --- | --- | --- |
| BldN domain 4 (σ4), non-tagged (domain or fragment) | 1 | – |
| BldN (σ^BldN), full length, wild type (natural protein) | – | 1 |
| BldN domain 2 (σ2), non-tagged (domain or fragment) | 1 | – |
